Patent publication US20240002497A1 (Merck Sharp & Dohme, published 2024)
Each block holds one binder with its values, some of them ahead of it.

What was measured:
[1] = biological target: T1, huNav1.7α + β1-β2-β3 (human, UniProt Q15858 1-1988; A5A6L6 19-218; O60939 30-215; Q2KI11 23-215); assay: competition FACS, HEK FlpIn cells, vs EC30 of CMYC3-F0103265B04
T1 construct: Cell line (CHO FlpIn, HEK FlpIn, transient HEK293T) is named under assay; also called huNav1.7-beta1-beta2-beta3; human Nav1.7α with Navβ1, Navβ2 and Navβ3
Protocol: Competition FACS assays were performed with CMYC3-tagged ISVD F0103265B04 or F0103275B05(N93R) affinity maturation variant on a HEK FlpIn huNav1.7α+β1−β2−β3 transgenic cell line. Briefly, cells were resuspended in FACS buffer (PBS, 2% FBS, 0.05% NaN₃) and 1×10⁵ cells/well were transferred to 96-well V-bottom plates. Cells were subsequently resuspended in a 100 μL mixture of purified ISVD (dilution series) and CMYC3-tagged ISVD F0103265B04 (at a concentration equivalent to EC30) followed by incubation for 1.5 hours at 4° C. […] Between each step, the cells were centrifuged for 5 minutes at 200 g and washed with 100 μL/well FACS buffer. Prior to the read-out, the samples were resuspended in 5 nM TOPRO3 (Molecular probes, catalog #T3605) to exclude dead cells. F0103262CO2, F0103262B06, F0103265A11, F0103265B04, F0103275B05, F0103362B08, and F0103387G04 all compete with F0103265B04 for binding to huNav1.7α, in contrast to an irrelevant control ISVD (IRR) (see Table 21 and FIG. 15A, FIG. 15B, FIG. 15C, and FIG. 15D).

[2] = biological target: T2, huNav157chim7 + β1-β2-β3 (human); assay: FACS, transiently transfected HEK293T cells
T2 construct: DI, DIII, DIV from Nav1.5α, DII from Nav1.7α; also called huNav157 chimera 7
Protocol: (§1) Binding of the ISVDs to cell-expressed Nav1.7α was detected via murine anti-Flag (Sigma, catalog #F1804). Briefly, cells were resuspended in FACS buffer (PBS, 10% FBS, NaN₃) and transferred to a 96-well V-bottom plate at 1×10^5 cells/well. Purified FLAG3-tagged ISVD was diluted in FACS buffer and added to the cells for 30 minutes at 4° C. […] Prior to the read-out, the samples were resuspended in 1 μg/mL propidium iodide (Sigma, catalog #P4170) to exclude dead cells. Between each step, the cells were centrifuged for 5 minutes at 200 grams and washed with 100 μL/well FACS buffer.
(§2) FACS binding studies (as described above) were performed on HEK293T cells transiently transfected with expression vectors encoding a huNav1.7α or rhNav1.7α fused at the C-terminus via a P2A viral peptide linker to a single polypeptide encoding sodium channel beta subunits Navβ1, Navβ2, and Navβ3 in tandem (β1-β2-β3; SEQ ID NO:21). Similarly, HEK293T cells transiently transfected with expression vectors encoding chimeric variants of huNav1.7α in which individual domains are replaced by their huNav1.5α counterparts (chimeras 1 to 4 in FIG. 16) or with chimeric variants of huNav1.5 in which individual domains are replaced by their huNav1.7α counterparts (chimeras 5 to 8 in FIG. 16) fused at the C-terminus via a P2A viral peptide linker to β1-β2-β3 as above. See Table 7 for description of the expression vectors encoding the chimeras, Table 21 and FIG. 16).

[3] = biological target: T3, huNav157chim6 + β1-β2-β3 (human); assay: FACS, transiently transfected HEK293T cells
T3 construct: DI, DII, DIV from Nav1.5α, DIII from Nav1.7α; also called huNav157 chimera 6
Protocol: as §1, §2

[4] = biological target: T4, huNav157chim12 + β1-β2-β3 (human, UniProt Q15858 1-1988; A5A6L6 19-218; O60939 30-215; Q2KI11 23-215); assay: FACS, transiently transfected HEK293T cells
T4 construct: DI S5-S6 from Nav1.5α, rest Nav1.7α; also called huNav157 chimera 12
Protocol: as §1, §2

[5] = biological target: T5, huNav157chim4 + β1-β2-β3 (human, UniProt Q15858 44-1988; A5A6L6 19-218; O60939 30-215; Q2KI11 23-215); assay: FACS, transiently transfected HEK293T cells
T5 construct: DII, DIII, DIV from Nav1.7α, DI from Nav1.5α; also called huNav157 chimera 4
Protocol: as §1, §2

[6] = biological target: T6, huNav157chim5 + β1-β2-β3 (human); assay: FACS, transiently transfected HEK293T cells
T6 construct: DI, DII, DIII from Nav1.5α, DIV from Nav1.7α; also called huNav157 chimera 5
Protocol: as §1, §2

[7] = biological target: T7, Navβ3 (human, UniProt Q9NY72 23-215, limits assumed); assay: binding ELISA
T7 construct: also called beta3 subunit

[8] = biological target: T8, huNav1.7α (human, UniProt Q15858 1-1988); assay: further characterization (binding ELISA and FACS)
T8 construct: HEK cells expressing the α subunit alone; also called HEKa; HEK huNav1.7α

[9] = biological target: T9, rhNav1.7α + β1-β2-β3 (rhesus monkey); assay: binding FACS, CHO FlpIn cells
T9 construct: also called rhNav1.7-beta1-beta2-beta3; rhesus Nav1.7α
Protocol: as §1
(§3) Based on the huNav1.7α model (as described above) the following huNav1.7α-rhNav1.7α polymorphisms can be allocated to the extracellular part of DI: N146S, F276V, R277Q, E281V and V331M. The first of the residues is in DI S1-S2 whereas the latter four residues belong to DI S5-S6. FACS binding studies (as described above) were performed to stable CHO FlpIn cell lines expressing different variants of huNav1.7+β1−β2−β3 each including one of the four possible extracellular huNav1.7α-rhNav1.7α polymorphisms in the DI S5-S6 region: F276V, R277Q, E281V and V331M (Table 23 and FIGS. 22A-22F). Individual polymorphisms were each sufficient to abolish the binding of F0103265B04, F0103362B08, F010301080, and F0103262B06 to huNav1.7α, recapitulating the absence of binding on rhNav1.7α. F0103262CO2, F0103275B05 and F0103387G05 are more subtly affected in terms of EC50 or Bmax by some of the polymorphisms. None of the individual DI S5-S6 polymorphisms by themselves appear to have an impact on the binding of the two rhNav1.7α cross-reactive ISVDs F0103387G04 and F0103464B09. In addition, no effect on binding of the two ISVDs was observed (data not shown) for the three extracellular DIV VSD huNav1.7α-rhNav1.7α polymorphisms Q1530P, H1531Y and E1534D (FIG. 22G).

[10] = biological target: T10, huNav1.7α(V331M) + β1-β2-β3 (human); assay: binding FACS, CHO FlpIn cells
T10 construct: polyprotein as encoded; the entry already carries V331M; also called huNav1.7(V331M)-beta1-beta2-beta3
Protocol: as §1, §3

[11] = biological target: T1, huNav1.7α + β1-β2-β3; assay: binding FACS, CHO FlpIn cells
Protocol: as §1, §3

[12] = biological target: T11, huNav1.7α(F276V) + β1-β2-β3 (human, UniProt Q15858 1-1988; A5A6L6 19-218; O60939 30-215; Q2KI11 23-215); assay: binding FACS, CHO FlpIn cells
T11 construct: polyprotein as encoded, P2A sites liberate the subunits; the entry already carries F276V; also called huNav1.7(F276V)-beta1-beta2-beta3
Protocol: as §1, §3

[13] = biological target: T12, huNav1.7α(E281V) + β1-β2-β3 (human); assay: binding FACS, CHO FlpIn cells
T12 construct: polyprotein as encoded; the entry already carries E281V; also called huNav1.7(E281V)-beta1-beta2-beta3
Protocol: as §1, §3

[14] = biological target: T13, huNav1.7α(R277Q) + β1-β2-β3 (human); assay: binding FACS, CHO FlpIn cells
T13 construct: polyprotein as encoded; the entry already carries R277Q; also called huNav1.7(R277Q)-beta1-beta2-beta3
Protocol: as §1, §3

- binding result [7]: no binding
- binding result [8]: no binding
B2: F0103478E09 (VHH)
VHH: EVQLVESGGGLVQAGGSLRLSCAASGRAFSTLAMGWFRQAPGKEREFVAAISRNGNNSATGDSLKGRFTISRDSTKSTVFLQMNTLKPEDTAVYYCAAISTPSASHPYVRKESYRYWGQGTLVTVSS
notes: Purified monovalent protein

- binding result [7]: no binding
- binding result [8]: no binding
B3: F0103492E09 (VHH)
VHH: EVQLVESGGGLVQAGGSLRLSCAASKSILSFAYMRWYRQAPGKQREFVASIAIGGATSYTDSVKGRFTISRDNAKNTVYLQMNSLKPEDTAVYYCSAPAGQYRGQGTLVTVSS
notes: Purified monovalent protein

- binding result [7]: no binding
- binding result [8]: no binding
B6: F0103500E03 (VHH)
VHH: EVQLVESGGGLVQPGGSLRLSCAASGRTFSRYQMGWFRQAPGKEREFVAYISWSGSTRYVDSVKGRFTISRDNAKNTVYLQMNSLKPEDTAVYHCAAGTAGIISSRPETYDSWGQGTLVTVSS
notes: Purified monovalent protein

- binding result [7]: no binding
- binding result [8]: no binding
B8: F0103505D08 (VHH)
VHH: EVQLVESGGGLVQAGGSLRLSCVTSGRTSDLSTMNWFRQAPGKEREFVARITRRGSTYYAESVKERFIISRDNAKNTVYLQMNSLKPEDTANYYCTAASEMGYHYRGQGTLVTVSS
notes: Purified monovalent protein; also called F0103505D8

Further lines, the binder ahead of its results:

B1: F0103265A11 (VHH)
VHH: EVQLVESGGGLVQPGGSLRLSCAASGMLFNANTQGWYRQAPGKQRELVAFIFSGGYTNYVDSVKGRFTISRDNAKRTMYLQMNSLKPEDSAIYYCSLSRYLGQGTLVTVSS
notes: entry includes the FLAG-HIS6 tag; also called F0103265A11 (parental)-FLAG-HIS6
- IC50 [1]: 75 nM
- binding result [2]: no binding (tested: 1 µM)
- binding result [3]: no binding (tested: 1 µM)
- binding result [4]: no binding (tested: 1 µM)
- binding result [5]: no binding (tested: 1 µM)
- binding result [6]: no binding (tested: 1 µM)

B4: F0103262C02 (VHH)
VHH: EVQLVESGGGLVQAGGSLTLSCAASGLPFGLYILGWIRRAPGKERDFVAAISRSGRDTVYANSVKGRFTISRDNAKNMVYLRMDNLRPEDTAAYYCAVDSVPRGTPTITESEYAIWGQGTLVTVSS
notes: entry includes the FLAG-HIS6 tag; also called F0103262C02 (parental)-FLAG-HIS6; F103262CO2
- IC50 [1]: 530 nM
- binding result [2]: no binding (tested: 1 µM)
- binding result [3]: no binding (tested: 1 µM)
- binding result [4]: no binding (tested: 1 µM)
- binding result [5]: no binding (tested: 1 µM)
- binding result [6]: no binding (tested: 1 µM)
- binding result [9]: no binding
- EC50 [10]: 86 nM
- EC50 [11]: 290 nM
- EC50 [12]: 210 nM
- EC50 [13]: 240 nM
- EC50 [14]: 450 nM

B5: F0103265B04 (VHH)
VHH: EVQLVESGGGLVQPGGSLRLSCAAPSFIFSNNYMEWYRQAPGKQRDWVARITGRGNTNYLDSVKGRFTISRDDAKNTVYLEIDSLKPEDTAVYYCSALWYGGRAWGKGTLVTVSS
notes: entry includes the FLAG-HIS6 tag; also called F0103265B04 (parental)-FLAG-HIS6
- IC50 [1]: 18 nM
- binding result [2]: no binding (tested: 1 µM)
- binding result [3]: no binding (tested: 1 µM)
- binding result [4]: no binding (tested: 1 µM)
- binding result [5]: no binding (tested: 1 µM)
- binding result [6]: no binding (tested: 1 µM)
- binding result [9]: no binding
- binding result [10]: no binding
- EC50 [11]: 9.2 nM
- binding result [12]: no binding
- EC50 [13]: 7.5 nM
- EC50 [14]: 7.1 nM

B7: F0103262B06 (VHH)
VHH: EVQLVESGGGLVQPGGSLRLSCAGSTRTFSTYAMGWFRQAPGREREFVAHINFSGSSTRYADSVKGRFTISRDNAKNMGYLQMNSLKPEDTAVYYCAARWVAGPPRYDYEYWGQGTLVTVSS
notes: entry includes the FLAG-HIS6 tag; also called F0103262B06 (parental)-FLAG-HIS6
- IC50 [1]: 49 nM
- binding result [2]: no binding (tested: 1 µM)
- binding result [3]: no binding (tested: 1 µM)
- binding result [4]: no binding (tested: 1 µM)
- binding result [5]: no binding (tested: 1 µM)
- binding result [6]: no binding (tested: 1 µM)
- binding result [9]: no binding
- EC50 [10]: 63 nM
- EC50 [11]: 47 nM
- binding result [12]: no binding
- binding result [13]: no binding
- binding result [14]: no binding
